Data set [1] deals with HeLa Kyoto. The data set can be described thus: solubility in G1/S (NP-40 vs SDS abundance) (log2 ratio); higher = more soluble. As to conditions: cell cycle stage: G1/S.
For data set [2], the system named is HeLa Kyoto. Kind of data set: melting temperature (median over replicates), in situ; higher = more thermally stable.
Data set [3] concerns HeLa Kyoto. The data set can be described thus: solubility change mitosis vs G1/S (difference of NP-40 vs SDS log2 ratios) (log2 ratio difference); higher = more soluble in mitosis.
Data set [4] deals with HeLa Kyoto. The data set can be described thus: thermal stability score vs G1/S (z-score of summed log2 fold changes over temperatures); higher = more thermally stable than in G1/S.
Where [5] appears, read: cell cycle stage: early G1 (4.5 h after nocodazole release).
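For melting temperature (median over replicates), in situ in this document: HeLa Kyoto cells synchronized by double thymidine or nocodazole block, proteins quantified by TMT10plex mass spectrometry, three independent biological replicates.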
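For solubility change mitosis vs G1/S (difference of NP-40 vs SDS log2 ratios) in this document: synchronized HeLa Kyoto cells (double thymidine block for G1/S, nocodazole release for mitosis), protein amounts in NP-40 versus SDS lysates quantified by mass spectrometry, three biological replicates.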
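For solubility in G1/S (NP-40 vs SDS abundance) in this document: HeLa Kyoto cells arrested at G1/S by double thymidine block, proteins quantified by TMT10plex mass spectrometry in mild NP-40 versus SDS extracts, three biological replicates.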
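For thermal stability score vs G1/S (z-score of summed log2 fold changes over temperatures) in this document: synchronized HeLa Kyoto cells, proteins quantified by TMT10plex mass spectrometry, three biological replicates, mitosis taken 0.5 h after nocodazole release, G1/S directly after double thymidine block.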

On to “MKSSVAQIKPSSGHDRRENLNSYQRNSSPEDRYEEQERSPRDRDYFDYSRSDYEHSRRGRSYDSSMESRNRDREKRRERERDTDRKRSRKSPSPGRRNPETSVTQSSSAQDEPATKKKKDELDPLLTRTGGAYIPPAKLRMMQEQITDKNSLAYQRMSWEALKKSINGLINKVNISNISIIIQELLQENIVRGRGLLSRSVLQAQSASPIFTHVYAALVAIINSKFPQIGELILKRLILNFRKGYRRNDKQLCLTASKFVAHLINQNVAHEVLCLEMLTLLLERPTDDSVEVAIGFLKECGLKLTQVSPRGINAIFERLRNILHESEIDKRVQYMIEVMFAVRKDGFKDHPIILEGLDLVEEDDQFTHMLPLEDDYNPEDVLNVFKMDPNFMENEEKYKAIKKEILDEGDTDSNTDQDAGSSEEDEEEEEEEGEEDEEGQKVTIHDKTEINLVSFRRTIYLAIQSSLDFEECAHKLLKMEFPESQTKELCNMILDCCAQQRTYEKFFGLLAGRFCMLKKEYMESFEGIFKEQYDTIHRLETNKLRNVAKMFAHLLYTDSLPWSVLECIKLSEETTTSSSRIFVKIFFQELCEYMGLPKLNARLKDETLQPFFEGLLPRDNPRNTRFAINFFTSIGLGGLTDELREHLKNTPKVIVAQKPDVEQNKSSPSSSSSASSSSESDSSDSDSDSSDSSSESSSEESDSSSISSHSSASANDVRKKGHGKTRSKEVDKLIRNQQTNDRKQKERRQEHGHQETRTERERRSEKHRDQNSSGSNWRDPITKYTSDKDVPSERNNYSRVANDRDQEMHIDLENKHGDPKKKRGERRNSFSENEKHTHRIKDSENFRRKDRSKSKEMNRKHSGSRSDEDRYQNGAERRWEKSSRYSEQSRESKKNQDRRREKSPAKQK [CWC22]”, for which the “solubility in G1/S (log2)” value in the data set with HeLa Kyoto [1] was -0.707. Besides, the values for the melting temperature in the data set with HeLa Kyoto [2] (cell cycle stage: G1/S) and in the data set on HeLa Kyoto [2] (cell cycle stage: mitosis) were 46.1 °C and 49.3 °C, respectively. Further, the “solubility change mitosis (log2)” value in the data set on HeLa Kyoto [3] turned out to be 0.227. Further, the thermal stability score in the data set on HeLa Kyoto [4] (setting [5]) turned out to be 1.24; with HeLa Kyoto [4] (cell cycle stage: mitosis), 2.43.
For “MKVHMHTKFCLICLLTFIFHHCNHCHEEHDHGPEALHRQHRGMTELEPSKFSKQAAENEKKYYIEKLFERYGENGRLSFFGLEKLLTNLGLGERKVVEINHEDLGHDHVSHLDILAVQEGKHFHSHNHQHSHNHLNSENQTVTSVSTKRNHKCDPEKETVEVSVKSDDKHMHDHNHRLRHHHRLHHHLDHNNTHHFHNDSITPSERGEPSNEPSTETNKTQEQSDVKLPKGKRKKKGRKSNENSEVITPGFPPNHDQGEQYEHNRVHKPDRVHNPGHSHVHLPERNGHDPGRGHQDLDPDNEGELRHTRKREAPHVKNNAIISLRKDLNEDDHHHECLNVTQLLKYYGHGANSPISTDLFTYLCPALLYQIDSRLCIEHFDKLLVEDINKDKNLVPEDEANIGASAWICGIISITVISLLSLLGVILVPIINQGCFKFLLTFLVALAVGTMSGDALLHLLPHSQGGHDHSHQHAHGHGHSHGHESNKFLEEYDAVLKGLVALGGIYLLFIIEHCIRMFKHYKQQRGKQKWFMKQNTEESTIGRKLSDHKLNNTPDSDWLQLKPLAGTDDSVVSEDRLNETELTDLEGQQESPPKNYLCIEEEKIIDHSHSDGLHTIHEHDLHAAAHNHHGENKTVLRKHNHQWHHKHSHHSHGPCHSGSDLKETGIANIAWMVIMGDGIHNFSDGLAIGAAFSAGLTGGISTSIAVFCHELPHELGDFAVLLKAGMTVKQAIVYNLLSAMMAYIGMLIGTAVGQYANNITLWIFAVTAGMFLYVALVDMLPEMLHGDGDNEEHGFCPVGQFILQNLGLLFGFAIMLVIALYEDKIVFDIQF [SLC39A10]”, the “solubility in G1/S (log2)” value with HeLa Kyoto [1] is -0.0606. The melting temperature stood at 59.3 °C in the data set with HeLa Kyoto [2] (cell cycle stage: G1/S) and 59 °C with HeLa Kyoto [2] (cell cycle stage: mitosis). Besides, the “solubility change mitosis (log2)” value with HeLa Kyoto [3] is -0.0208. Moreover, the figures for the thermal stability score with HeLa Kyoto [4] (setting [5]) and in the data set with HeLa Kyoto [4] (cell cycle stage: mitosis) were -2.73 and -0.381, respectively.
On to “MKVNRETKRLYVGGLSQDISEADLQNQFSRFGEVSDVEIITRKDDQGNPQKVFAYINISVAEADLKKCMSVLNKTKWKGGTLQIQLAKESFLHRLAQEREAAKAKKEESTTGNANLLEKTGGVDFHMKAVPGTEVPGHKNWVVSKFGRVLPVLHLKNQHKRKIIKYDPSKYCHNLKKIGEDFSNTIPISSLTWELEGGNDPMSKKRRGEFSDFHGPPKKIIKVQKDESSTGSLAMSTRPRRVIERPPLTQQQAAQKRTCDSITPSKSSPVPVSDTQKLKNLPFKTSGLETAKKRNSISDDDTDSEDELRMMIAKEENLQRTTQPSINESESDPFEVVRDDFKSGVHKLHSLIGLGIKNRVSCHDSDDDIMRNDREYDSGDTDEIIAMKKNVAKVKNSTEFSQMEKSTKKTSFKNRENCELSDHCIKLQKRKSNVESALSHGLKSLNRKSPSHSSSSEDADSASELADSEGGEEYNAMMKNCLRVNLTLADLEQLAGSDLKVPNEDTKSDGPETTTQCKFDRGSKSPKTPTGLRRGRQCIRPAEIVASLLEGEENTCGKQKPKENNLKPKFQAFKGVGCLYEKESMKKSLKDSVASNNKDQNSMKHEDPSIISMEDGSPYVNGSLGEVTPCQHAKKANGPNYIQPQKRQTTFESQDRKAVSPSSSEKRSKNPISRPLEGKKSLSLSAKTHNIGFDKDSCHSTTKTEASQEERSDSSGLTSLKKSPKVSSKDTREIKTDFSLSISNSSDVSAKDKHAEDNEKRLAALEARQKAKEVQKKLVHNALANLDGHPEDKPTHIIFGSDSECETEETSTQEQSHPGEEWVKESMGKTSGKLFDSSDDDESDSEDDSNRFKIKPQFEGRAGQKLMDLQSHFGTDDRFRMDSRFLETDSEEEQEEVNEKKTAEEEELAEEKKKALNVVQSVLQINLSNSTNRGSVAAKKFKDIIHYDPTKQDHATYERKRDDKPKESKAKRKKKREEAEKLPEVSKEMYYNIAMDLKEIFQTTKYTSEKEEGTPWNEDCGKEKPEEIQDPAALTSDAEQPSGFTFSFFDSDTKDIKEETYRVETVKPGKIVWQEDPRLQDSSSEEEDVTEETDHRNSSPGEASLLEKETTRFFFFSKNDERLQGSDLFWRGVGSNMSRNSWEARTTNLRMDCRKKHKDAKRKMKPK [NOL8]”, for which the “solubility in G1/S (log2)” value in the data set on HeLa Kyoto [1] is -1.85. Besides, the melting temperature with HeLa Kyoto [2] (cell cycle stage: G1/S) and in the data set with HeLa Kyoto [2] (cell cycle stage: mitosis) was 51.3 °C throughout. The “solubility change mitosis (log2)” value with HeLa Kyoto [3] was determined as 1.08. Besides, the results for the thermal stability score in the data set on HeLa Kyoto [4] (setting [5]) and in the data set with HeLa Kyoto [4] (cell cycle stage: mitosis) were 1.32 and 2.26, respectively.
“MKYILVTGGVISGIGKGIIASSVGTILKSCGLHVTSIKIDPYINIDAGTFSPYEHGEVFVLDDGGEVDLDLGNYERFLDIRLTKDNNLTTGKIYQYVINKERKGDYLGKTVQVVPHITDAIQEWVMRQALIPVDEDGLEPQVCVIELGGTVGDIESMPFIEAFRQFQFKVKRENFCNIHVSLVPQPSSTGEQKTKPTQNSVRELRGLGLSPDLVVCRCSNPLDTSVKEKISMFCHVEPEQVICVHDVSSIYRVPLLLEEQGVVDYFLRRLDLPIERQPRKMLMKWKEMADRYDRLLETCSIALVGKYTKFSDSYASVIKALEHSALAINHKLEIKYIDSADLEPITSQEEPVRYHEAWQKLCSAHGVLVPGGFGVRGTEGKIQAIAWARNQKKPFLGVCLGMQLAVVEFSRNVLGWQDANSTEFDPTTSHPVVVDMPEHNPGQMGGTMRLGKRRTLFQTKNSVMRKLYGDADYLEERHRHRFEVNPVWKKCLEEQGLKFVGQDVEGERMEIVELEDHPFFVGVQYHPEFLSRPIKPSPPYFGLLLASVGRLSHYLQKGCRLSPRDTYSDRSGSSSPDSEITELKFPSINHD [CTPS1]”: the “solubility in G1/S (log2)” value in the data set on HeLa Kyoto [1] was -0.00383. Besides, the melting temperature in the data set on HeLa Kyoto [2] (cell cycle stage: G1/S) and in the data set on HeLa Kyoto [2] (cell cycle stage: mitosis) was 55.3 °C throughout. Moreover, the “solubility change mitosis (log2)” value with HeLa Kyoto [3] is -0.0782. For the same sequence, the values for the thermal stability score in the data set with HeLa Kyoto [4] (setting [5]) and in the data set on HeLa Kyoto [4] (cell cycle stage: mitosis) were 0.505 and -2.34, respectively.

The values are drawn from the supplement of paper PMC5998384.
